Source: paper PMC8304084, “A Concerted Action of UBA5 C-Terminal Unstructured Regions Is Important for Transfer of Activated UFM1 to UFC1” (International Journal of Molecular Sciences, 2021)

Key:
Assay in all cases: ITC; VP-ITC, 25 °C; UBA5 peptides (~400 µM) titrated into 20–25 µM binding partner; 25 mM HEPES pH 7.5, 100 mM NaCl; one-site model; a single profile for each interaction
Details in all cases: both partners purified
[1] = molecular target: T1, Full length UFM1, residues 2–83 (UniProt P61960 2-83)
T1 construct: N-terminal cloning artefact left after TEV cleavage (vector pET39_Ub19); UFM1 (ubiquitin fold modifier 1), residues 2–83 (processed form ending at Gly83); also called Ubiquitin fold modifier 1; source: E. coli T7 Express, purified (His Trap IMAC, TEV cleavage, reverse IMAC, Superdex gel filtration); not shown: modified ubiquitin tag (Ub19), N-terminal, cleaved

LC3B, residues 5–120 = LC3B, residues 5–120 (UniProt Q9GZQ8 5-120)
[2] = molecular target: T2, GABARAPL2, residues 3–116 (UniProt P60520 3-116)
T2 construct: N-terminal cloning artefact left after TEV cleavage (vector pET39_Ub19); source: E. coli T7 Express, purified (His Trap IMAC, TEV cleavage, reverse IMAC, Superdex gel filtration); not shown: modified ubiquitin tag (Ub19), N-terminal, cleaved
T2 sequence (P60520 other isoform, or with tags, fused parts or gaps): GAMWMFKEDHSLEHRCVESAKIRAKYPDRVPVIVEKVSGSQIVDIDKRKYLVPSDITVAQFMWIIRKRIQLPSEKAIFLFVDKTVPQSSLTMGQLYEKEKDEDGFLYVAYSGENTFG

T1 sequence (P61960 other isoform, or with tags, fused parts or gaps): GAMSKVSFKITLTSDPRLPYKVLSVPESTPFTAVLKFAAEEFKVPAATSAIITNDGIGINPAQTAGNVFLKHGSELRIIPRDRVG

- Kd [1]: > 100 µM
- Kd (LC3B, residues 5–120): > 100 µM
- Kd [2]: > 100 µM
B1: UBA5 C-terminal region R2, residues 359–376 (peptide)
chain: GAMGPVPDLPEGITVAYTIPK
notes: N-terminal cloning artefact left after TEV cleavage (vector pET39_Ub19); also called isolated R2 peptide; source: E. coli T7 Express, purified (His Trap IMAC, TEV cleavage, reverse IMAC, Superdex gel filtration); not shown: modified ubiquitin tag (Ub19), N-terminal, cleaved
